Source: US12291727B2, “Method for producing stem cell-derived lacrimal gland tissue” (Osaka University, priority 2018, dated 2025)

Test system: CD200−, SSEA4+, and CD104+ ocular surface stem cells
Test: Three-dimensional culture for induction of lacrimal gland organoids from iPS cell-derived ocular surface stem cells
Format: cell-based, Human
Settings: for promoting lacrimal gland differentiation: 3D culture in Matrigel, 20 ng/mL KGF, 100 ng/mL FGF10, 100 ng/mL BMP7 or 10 μM Y-27632, each plus 10 ng/mL EGF, FIG. 5A
Protocol: The obtained ocular surface stem cells were seeded on PrimeSurface (registered trademark) 96U plates (Sumitomo Bakelite Co., Ltd.) at 50,000 cells/spheroid in DMEM/F-12 with B27 supplement containing 10 μM Y-27632 and 20 ng/mL KGF and cultured for 1 day to form spheroids (diameter: about 560 μm). The spheroids were embedded in Matrigel GFR (Corning) and cultured in DMEM/F-12 with B27 supplement containing 10 μM Y-27632, 10 ng/mL EGF, and 100 ng/mL TGF-β3 for 2 weeks.
Three-dimensional culture was performed as described in Example 2 in the presence of 10 ng/mL EGF, 10 ng/mL EGF plus 10 μM Y-27632, or 10 ng/mL EGF plus another growth factor reportedly involved in lacrimal gland differentiation, namely, 20 ng/mL KGF, 100 ng/mL FGF10, or 100 ng/mL BMP7.
Similarly, three-dimensional culture was performed in DMEM/F-12 with B27 supplement, 10 ng/mL EGF, and 10 μM Y-27632 containing 100 ng/mL TGF-β1, β2, or β3.
Three-dimensional culture was performed as described in Example 2 in a medium with 10 ng/mL EGF and 10 μM Y-27632 containing 4, 20, or 100 ng/mL TGF-β3.
RNA was collected from each sample using QIAzol Lysis Reagent and subjected to gene expression analysis as described in Example 3.

| Molecule | promoting lacrimal gland differentiation | other results |
| --- | --- | --- |
| C[C@@H](N)[C@H]1CC[C@H](C(=O)Nc2ccncc2)CC1 [Y-27632, N-(4-pyridinyl)-4β-[(R)-1-aminoethyl]cyclohexane-1α-carboamide, reference compound] | remarkably promoted lacrimal gland differentiation |  |
| TGF-β |  | maturation of the lacrimal gland structure (100 ng/mL TGF-β1, β2 or β3 in medium with 10 ng/mL EGF and 10 μM Y-27632, FIG. 5B): helped further maturation of the lacrimal gland structure |
| BMP7: growth factor reportedly involved in lacrimal gland differentiation (protein, UniProt P18075 293-431, looked up) Bone morphogenetic protein 7: STGSKQRSQNRSKTPKNQEALRMANVAENSSSDQRQACKKHELYVSFRDLGWQDWIIAPEGYAAYYCEGECAFPLNSYMNATNHAIVQTLVHFINPETVPKPCCAPTQLNAISVLYFDDSSNVILKKYRNMVVRACGCH | less effective |  |
| FGF10: growth factor reportedly involved in lacrimal gland differentiation (protein, UniProt O15520 38-208, looked up) Fibroblast growth factor 10: QALGQDMVSPEATNSSSSSFSSPSSAGRHVRSYNHLQGDVRWRKLFSFTKYFLKIEKNGKVSGTKKENCPYSILEITSVEIGVVAVKAINSNYYLAMNKKGKLYGSKEFNNDCKLKERIEENGYNTYASFNWQHNGRQMYVALNGKGAPRRGQKTRRKNTSAHFLPMVVHS | less effective |  |
| TGF-β3: TGF-β subtype added to the medium to promote cell maturation (protein, UniProt P10600 301-412, looked up, Transforming growth factor beta-3, TGF-β subtype added to the medium to promote cell maturation) Transforming growth factor …: ALDTNYCFRNLEENCCVRPLYIDFRQDLGWKWVHEPKGYYANFCSGPCPYLRSADTTHSTVLGLYNTLNPEASASPCCVPQDLEPLTILYYVGRTPKVEQLSNMVVKSCKCS |  | maturation (morphology and gene expression) (4 ng/mL TGF-β3 in medium with 10 ng/mL EGF and 10 μM Y-27632, FIGS. 6A, 6B): maturation was promoted to some extent; extent of maturation, concentration dependence (4, 20 or 100 ng/mL TGF-β3 in medium with 10 ng/mL EGF and 10 μM Y-27632): increased in a TGF-β3 concentration dependent manner |
| KGF: keratinocyte growth factor, growth factor reportedly involved in lacrimal gland differentiation (protein, UniProt P21781 32-194, looked up) Fibroblast growth factor 7: CNDMTPEQMATNVNCSSPERHTRSYDYMEGGDIRVRRLFCRTQWYLRIDKRGKVKGTQEMKNNYNIMEIRTVAVGIVAIKGVESEFYLAMNKEGKLYAKKECNEDCNFKELILENHYNTYASAKWTHNGGEMFVALNQKGIPVRGKKTKKEQKTAHFLPMAIT | less effective |  |
